20 sequences from the supplement of paper PMC9170038 can be followed below.

Data set [1] relates to MS2 coat protein. Kind of data set: apparent KD of MS2 coat protein, switch ON state; designed switch direction (-1 OFF switch, 1 ON switch): -1; higher = weaker reporter binding. The settings on record: FMN input: 0 or 200 uM; Eterna round: R93 (includes R88 designs). The gist of the method: (§1)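 The buffer was 100 mM Tris-HCl pH 7.5 with 80 mM KCl and 4 mM MgCl2, used without or with constant ligand. In it, RNA switches transcribed on-chip from Illumina sequencing clusters were titrated with SNAP-549-labelled MS2 coat protein in twofold steps from 0.7 or 1.5 nM to 3 µM. Apparent KD for each design is the median of its normalised cluster binding-curve fits.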

In data set [2] the test system is MS2 coat protein. Put plainly: apparent KD of MS2 coat protein, switch OFF state (with FMN for OFF switches, without FMN for ON switches); designed switch direction (-1 OFF switch, 1 ON switch): -1; higher = weaker reporter binding. The conditions noted are these: FMN input: 0 or 200 uM; Eterna round: R93 (includes R88 designs). In short, it runs like this: as §1

As for “AAAAAGGGAGGAUAUACAUGAGGAUCACCCAUGUAUCAGACGAAAAAGAGUCUGGAAUGUAGAAGGCCCAAAAA [65%, Moding Exclusion3-cac2, 3]”, the “apparent KD of MS2 coat protein” value in data set [1] was determined as 14.3 nM; in data set [2], 25 nM.
The corresponding values for “AUAAAGACAGGAUAUACAUGAGGAUCACCCAUGUAAAAAAAAAAAAGUUCCUCAAAAAGUAGAAGGGUCAAUAA [JR_Exc003_Sub014]” are 28.4 nM and 119 nM.
On the same counts, the results for “AAAAAGUGAGGAUAUUCGGAUAGGAAAACGAAAACCUAUCCGAAGAAGGCACAUGAGGAUCACCCAUGUGAGAA [67% Ecls-II - Early G + late G segment 4]” are 26.5 nM and 51.3 nM.
As to “AAAAAGCGAGGAUAUACGAGUCAAAGAAAAGACAAAGGGAAACAUGAGGAUCACCCAUGUAGAAGGCGCAAAAA [Fiskers exclusion D2 62% 1]”, the “apparent KD of MS2 coat protein” value in data set [1] was found to be 23.7 nM; in data set [2] it was 134 nM.
With “AACAUGUCAGGAUAUGUACGAAAAAAUAAAAAAAUAAAAGUACAGAAGGGACAUGAGGAUCACCCAUGUCAGGG [EX4 393: Minimal 6]”, the “apparent KD of MS2 coat protein” value in data set [1] was determined as 100 nM; in data set [2], 20 nM.
On to “AAAAAGCGAGGAUAUACAUGAGGAUCACCCAUGUCAAAAGGUAAGACCGCAGAAAAAAGUAGAAGGCGCAAAAA [Exclusion3-01]”, for which the “apparent KD of MS2 coat protein” value in data set [1] was 68.1 nM; in data set [2] it was 172 nM.
“AAGAAACAUGAGGAUCACCCAUGUGAGGAUAUCGAAGAAAGAAAGAAAGAAAGAAGAACGAGAAGGCACAAAGG [Publius Octavius]”: the “apparent KD of MS2 coat protein” value in data set [1] worked out at 42.7 nM; in data set [2] it was 59.3 nM.
For the sequence “AAAGGGUCAGGAUAUGUACGAACAACAAAACAAAUAACGGUACAGAAGGGACAUGAGGAUCACCCAUGUAUAAA [May 73]”, the results for the “apparent KD of MS2 coat protein” value in data set [1] and in data set [2] were 51.9 nM and 64.1 nM, respectively.
On the same counts, the results for “GGUUGUGUAGGAUAUACAUGAGGAUCACCCAUGUGAGAGAAAAAAGUGAGAAAGAAAAGUAGAAGGACGUGACG [salish99-ex3-72]” are 45.3 nM and 42.7 nM.
Turning to “GGUUGGCGAGGAUAUACAUGAGGAUCACCCAUGUGAGAGAUAAAAGUGAGAAAGAAAAGUAGAAGGCGCUGACG [salish99-ex3-45]”, the “apparent KD of MS2 coat protein” value worked out at 29.2 nM in data set [1] and 65 nM in data set [2].
Turning to “AAGAAGAGAGGAUAUACAUGAGGAUCACCCAUGUAAAAGAAAGAGGGAAAAGAGAAAAGUAGAAGGCUCAAGAA [Arsinoe II]”, the “apparent KD of MS2 coat protein” value worked out at 23.9 nM in data set [1] and 37 nM in data set [2].
The corresponding values for “AUAAGAGCAGGAUAUACGUAUAUGAUGCCAGGACCGCGUCCACAUGAGGAUCACCCAUGUAGAAGGGCUUGAAA [Disoleve]” are 35.7 nM and 19.2 nM.
The corresponding values for “AGUGAGUCAGGAUAUGCGUGAAGAAUAAAAGAAAUAACAACGCAGAAGGGACAUGAGGAUCACCCAUGUACACA [May 56]” are 23.5 nM and 20.7 nM.
Turning to “CCAAAGUGAGGAUAUACGCGAACAAAAAAAAAAAAGAAAGCGUAGAAGGCACAUGAGGAUCACCCAUGUCCAGG [Alfred 64% 1]”, the “apparent KD of MS2 coat protein” value came to 41 nM in data set [1] and 99.3 nM in data set [2].
In the case of “AAAAGACAUGAGGAUCACCCAUGUGAGGAUAUGACGUAAAGAAAGAAAGAAGAAAUCGUCAGAAGGCACACCUA [Mat - Exclusion 1 - Eli mod - D68]”, the “apparent KD of MS2 coat protein” value came to 31.6 nM in data set [1] and 63.5 nM in data set [2].
Regarding “AAAGGACAUGAGGAUCACCCAUGUGAGGAUAUGACGUAAAUAAAGAAAGAAGAAAUCGUCAGAAGGCACACCUA [55%, Disencluded 2, 2]”, the results for the “apparent KD of MS2 coat protein” value in data set [1] and in data set [2] were 40.7 nM and 45.1 nM, respectively.
On the same counts, the results for “AAUAAGUGAGGAUAUGCAAAUAAUAAAUAAAAUAAAAUAAAGCAGAAGGCACAUGAGGAUCACCCAUGUAAAUA [JR_Exc004_Sub001]” are 34 nM and 29.5 nM.
In the case of “AAAAAACAUGAGGAUCACCCAUGUGAGGAUAUCGAAAAGUUAAAGAAAAAGACGAAAAUGAGAAGGCGCAAAAA [Fiskers Exclusion D1]”, the “apparent KD of MS2 coat protein” value in data set [1] amounted to 26.3 nM; in data set [2], 23.9 nM.
The corresponding values for “AACAGUACAGGAUAUACAUGAGGAUCACCCAUGUGAGAGAAAUAAAACAAAAAUAAAAGUAGAAGGGUACUGGA [Moding Maslow revisited (73) 22]” are 41.7 nM and 43.3 nM.
Take “AGCUAGUCAGGAUAUACGAACAUGUCGGAAGACGUGAAGGGACAUGAGGAUCACCCAUGUAGAAGGGACUAGCA [Mat - Exclusion 2 - JL mod - D3]”: the “apparent KD of MS2 coat protein” value in data set [1] was determined as 33.1 nM; in data set [2], 136 nM.
